Assay results from patent publication US20230212549A1, “COMPOUNDS COMPRISING A […] LIGAND AND USE THEREOF” (priority 2021, published 2023).
Numbered stars: 1 amine (or outer) side, 2 acyl side, 3 side chain; on linkers, the order of the positions; unused ones are H or OH. Bridge positions count the residues as written; N and C are the ends. Square brackets hold non-standard residues; d marks the D form. Primed or numbered codes have the meaning given here. * marks the point of attachment. tMeBn(DOTA-PP) = 1,3,5-trimethylbenzylidene, two thioethers to Cys, third CH2 bound to one N of piperazine whose other N bears DOTA, O=C(O)CN1CCN(CC(=O)O)CCN(CC(=O)N2CCN(Cc3cc(C[*:1])cc(C[*:2])c3)CC2)CCN(CC(=O)O)CC1; Ttds″ = 1,13-diamino-4,7,10-trioxatridecan-succinamic acid spacer, O=C(CCC(=O)[*:2])NCCCOCCOCCOCCCN[*:1]; Ttds(6) = 1,13-Diamino-4,7,10-trioxatridecan-succinamic acid, O=C(CCC(=O)[*:2])NCCCOCCOCCOCCCN[*:1]; 3MeBn″ = 3-methylbenzylidene (meta-xylylene bridge from alpha,alpha'-dibromo-m-xylene); 3MeBn = 3-Methylbenzylidene (m-xylylene thioether bridge from α,α′-dibromo-m-xylene); N4Ac = 6-Carboxy-1,4,8,11-tetraazaundecane, an N4-chelator, NCCNCC(CNCCN)C(=O)*; APAc = 2-(4-(Amino)piperidin-1-yl)acetic acid, O=C(CN1CCC(N[*:1])CC1)[*:2]; 3MeBn(3) = 3-methylbenzylidene (m-xylylene), from α,α′-dibromo-m-xylene; Biotin = O=C1N[C@H]2[C@H](CS[C@H]2CCCCC(=O)*)N1; γGlu = O=C(O)[C@H](CCC(=O)[*:2])N[*:1]; mXylylene = c1cc(C[*:1])cc(C[*:2])c1; Nle = CCCC[C@H](N)C(=O)O; Hexanoyl = CCCCCC(=O)*; Nleu = CC(C)CNCC(=O)O; Nlys = NCCCCNCC(=O)O; Mpa = O=C(O)CCS

B1: [3MeBn-Spa-Pro-Pro-Thr-Gln-Phe-Cys]-Asp-NH2 (peptide)
peptide: [Mpa]PPTQFCD-NH2
modifications: linker 1-7 via mXylylene
SMILES: C[C@@H](O)[C@@H]1NC(=O)[C@@H]2CCCN2C(=O)[C@@H]2CCCN2C(=O)CCSCc2cccc(c2)CSC[C@@H](C(=O)N[C@@H](CC(=O)O)C(N)=O)NC(=O)[C@H](Cc2ccccc2)NC(=O)[C@H](CCC(N)=O)NC1=O
B2: H-Met-[Cys(3MeBn)-Pro-Pro-Thr-Glu-Phe-Cys]-Asp-His-Phe-Arg-Asp-Ttds-Lys(Bio)-NH2 (peptide)
peptide: H-MCPPTEFCDHFRD[Ttds″]K(Biotin)-NH2
modifications: linker 2-8 via mXylylene
SMILES: CSCC[C@H](N)C(=O)N[C@H]1CSCc2cccc(c2)CSC[C@@H](C(=O)N[C@@H](CC(=O)O)C(=O)N[C@@H](Cc2c[nH]cn2)C(=O)N[C@@H](Cc2ccccc2)C(=O)N[C@@H](CCCNC(=N)N)C(=O)N[C@@H](CC(=O)O)C(=O)NCCCOCCOCCOCCCNC(=O)CCC(=O)N[C@@H](CCCCNC(=O)CCCC[C@@H]2SC[C@@H]3NC(=O)N[C@@H]32)C(N)=O)NC(=O)[C@H](Cc2ccccc2)NC(=O)[C@H](CCC(=O)O)NC(=O)[C@H]([C@@H](C)O)NC(=O)[C@@H]2CCCN2C(=O)[C@@H]2CCCN2C1=O
B3: Hex-[Cys(3MeBn)-Nlys-Pro-Thr-Gln-Phe-Cys]-NH2 (peptide)
peptide: Hexanoyl-C[Nlys]PTQFC-NH2
modifications: linker 1-7 via mXylylene
SMILES: CCCCCC(=O)N[C@H]1CSCc2cccc(c2)CSC[C@@H](C(N)=O)NC(=O)[C@H](Cc2ccccc2)NC(=O)[C@H](CCC(N)=O)NC(=O)[C@H]([C@@H](C)O)NC(=O)[C@@H]2CCCN2C(=O)CN(CCCCN)C1=O
B4: N4Ac-gGlu-Nle-[Cys-(3MeBn)-Pro-Pro-Thr-Glu-Phe-Cys]-OH (peptide)
peptide: N4Ac-[γGlu][Nle]CPPTEFC-OH
modifications: linker 3-9 via mXylylene
SMILES: CCCC[C@H](NC(=O)CC[C@H](NC(=O)C(CNCCN)CNCCN)C(=O)O)C(=O)N[C@H]1CSCc2cccc(c2)CSC[C@@H](C(=O)O)NC(=O)[C@H](Cc2ccccc2)NC(=O)[C@H](CCC(=O)O)NC(=O)[C@H]([C@@H](C)O)NC(=O)[C@@H]2CCCN2C(=O)[C@@H]2CCCN2C1=O
B5: Hex-[Cys(3MeBn)-Nleu-Pro-Thr-Gln-Phe-Cys]-NH2 (peptide)
peptide: Hexanoyl-C[Nleu]PTQFC-NH2
modifications: linker 1-7 via mXylylene
SMILES: CCCCCC(=O)N[C@H]1CSCc2cccc(c2)CSC[C@@H](C(N)=O)NC(=O)[C@H](Cc2ccccc2)NC(=O)[C@H](CCC(N)=O)NC(=O)[C@H]([C@@H](C)O)NC(=O)[C@@H]2CCCN2C(=O)CN(CC(C)C)C1=O
B6: N4Ac-Ttds-Glu(AGLU′)-Nle-[Cys-(3MeBn)-Pro-Pro-Thr-Glu-Phe-Cys]-OH (peptide)
peptide: N4Ac-[Ttds(6)]E[Nle]CPPTEFC-OH
modifications: linker 4-10 via 3MeBn; not fully specified (residue 2); printed as N4Ac-Ttds-Glu(AGLU′)-Nle-[Cys-(3MeBn)-Pro-Pro-Thr-Glu-Phe-Cys]-OH
B7: Hex-[Cys(tMeBn(DOTA-PP))-Thr-Gln-Pro-Phe-Pro-Cys]-Asp-NH2 (peptide)
peptide: Hexanoyl-CTQPFPCD-NH2
modifications: linker 1-7 via tMeBn(DOTA-PP)
SMILES: CCCCCC(=O)N[C@H]1CSCc2cc(cc(CN3CCN(C(=O)CN4CCN(CC(=O)O)CCN(CC(=O)O)CCN(CC(=O)O)CC4)CC3)c2)CSC[C@@H](C(=O)N[C@@H](CC(=O)O)C(N)=O)NC(=O)[C@@H]2CCCN2C(=O)[C@H](Cc2ccccc2)NC(=O)[C@@H]2CCCN2C(=O)[C@H](CCC(N)=O)NC(=O)[C@H]([C@@H](C)O)NC1=O
B8: Hex-[Cys(tMeBn(DOTA-PP))-Phe-Gln-Thr-Pro-Pro-Cys]-Asp-NH2 (peptide)
peptide: Hexanoyl-CFQTPPCD-NH2
modifications: linker 1-7 via tMeBn(DOTA-PP)
SMILES: CCCCCC(=O)N[C@H]1CSCc2cc(cc(CN3CCN(C(=O)CN4CCN(CC(=O)O)CCN(CC(=O)O)CCN(CC(=O)O)CC4)CC3)c2)CSC[C@@H](C(=O)N[C@@H](CC(=O)O)C(N)=O)NC(=O)[C@@H]2CCCN2C(=O)[C@@H]2CCCN2C(=O)[C@H]([C@@H](C)O)NC(=O)[C@H](CCC(N)=O)NC(=O)[C@H](Cc2ccccc2)NC1=O

Target: Recombinant human DPP4 (R&D systems, #9168-SE) (human) (UniProt P27487)
Assay: cell-based or functional assay

Chain of Recombinant human DPP4 (R&D systems, #9168-SE) (human) (P27487 29-766 limits assumed): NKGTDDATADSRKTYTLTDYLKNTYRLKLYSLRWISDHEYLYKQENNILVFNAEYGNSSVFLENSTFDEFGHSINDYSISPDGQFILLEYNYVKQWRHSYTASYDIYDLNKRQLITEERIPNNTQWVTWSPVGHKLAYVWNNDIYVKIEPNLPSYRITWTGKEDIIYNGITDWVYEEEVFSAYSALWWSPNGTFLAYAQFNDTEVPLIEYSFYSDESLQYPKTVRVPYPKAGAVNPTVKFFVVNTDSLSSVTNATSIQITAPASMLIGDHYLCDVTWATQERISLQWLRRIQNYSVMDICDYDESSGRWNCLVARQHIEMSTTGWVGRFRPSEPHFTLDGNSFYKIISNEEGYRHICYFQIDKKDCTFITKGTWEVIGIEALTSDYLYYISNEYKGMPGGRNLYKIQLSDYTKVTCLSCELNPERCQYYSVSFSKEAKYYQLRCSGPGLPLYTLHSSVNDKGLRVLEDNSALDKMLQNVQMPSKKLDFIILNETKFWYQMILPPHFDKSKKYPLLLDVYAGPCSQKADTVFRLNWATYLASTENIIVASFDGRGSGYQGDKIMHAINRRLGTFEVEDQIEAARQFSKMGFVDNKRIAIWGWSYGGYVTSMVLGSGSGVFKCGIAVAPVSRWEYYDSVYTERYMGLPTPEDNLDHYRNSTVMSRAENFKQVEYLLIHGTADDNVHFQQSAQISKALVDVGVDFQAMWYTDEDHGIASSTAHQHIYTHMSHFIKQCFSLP

| pIC50 (DPP4) [pIC50] | Binder |
| --- | --- |
| < 6 | Hexanoyl-CPPTEFC-NH2 (linker 1-7 via 3MeBn″) [Hex-[Cys(3MeBn)-Pro-Pro-Thr-Glu-Phe-Cys]-NH2] |
| < 6 | B1 |
| < 6 | B2 |

Target: recombinant human PREP (R&D systems, #4308-SE) (human) (UniProt P48147)
Assay: cell-based or functional assay

Chain of recombinant human PREP (R&D systems, #4308-SE) (human) (P48147 whole entry): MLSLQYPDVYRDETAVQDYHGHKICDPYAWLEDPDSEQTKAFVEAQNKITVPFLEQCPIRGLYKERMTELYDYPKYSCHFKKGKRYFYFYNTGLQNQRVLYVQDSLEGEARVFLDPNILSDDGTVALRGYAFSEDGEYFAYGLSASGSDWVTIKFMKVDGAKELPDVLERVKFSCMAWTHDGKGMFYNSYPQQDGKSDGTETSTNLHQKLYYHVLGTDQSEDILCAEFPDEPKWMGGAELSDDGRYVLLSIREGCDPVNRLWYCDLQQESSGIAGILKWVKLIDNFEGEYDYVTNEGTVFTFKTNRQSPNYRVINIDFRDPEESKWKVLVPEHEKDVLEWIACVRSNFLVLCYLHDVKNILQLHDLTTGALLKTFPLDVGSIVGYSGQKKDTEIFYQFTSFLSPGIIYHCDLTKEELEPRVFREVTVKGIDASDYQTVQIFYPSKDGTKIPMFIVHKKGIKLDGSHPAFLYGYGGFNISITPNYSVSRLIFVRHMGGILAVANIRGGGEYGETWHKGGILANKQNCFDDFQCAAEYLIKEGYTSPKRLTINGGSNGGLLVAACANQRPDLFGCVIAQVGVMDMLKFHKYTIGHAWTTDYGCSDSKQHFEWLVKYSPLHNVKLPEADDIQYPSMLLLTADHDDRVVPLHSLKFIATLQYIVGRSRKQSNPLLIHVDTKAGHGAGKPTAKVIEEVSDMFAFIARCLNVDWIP

| pIC50 (PREP) [pIC50] | Binder |
| --- | --- |
| < 6 | Hexanoyl-CPPTEFC-NH2 (linker 1-7 via 3MeBn″) [Hex-[Cys(3MeBn)-Pro-Pro-Thr-Glu-Phe-Cys]-NH2] |
| < 6 | B1 |
| < 6 | B2 |

Target: human fibroblast activation protein (FAP) on WI-38 fibroblasts (human) (UniProt Q12884)
Assay: competitive FACS, WI-38 cells, Cy5-labeled peptide as competitor

| pIC50 Category (FACS) [pIC50] | Binder |
| --- | --- |
| < 6 | B3 |
| < 6 | B4 |
| < 6 | B5 |
| < 6 | B6 |
| < 6 | B7 |
| < 6 | N4Ac-[APAc][Nle]CPPTEFC-OH (linker 3-9 via 3MeBn(3)) [N4Ac-APAc-Nle-[Cys-(3MeBn)-Pro-Pro-Thr-Glu-Phe-Cys]-OH] |
| < 6 | B8 |
